Laboratory results published in patent US20130064825A1.

What was measured:
[1] = molecular target: cynomolgus monkey PCSK9, V5-6xHIS tagged (cynomolgus monkey); assay: KinExA solution equilibrium, PCSK9-coated beads; cyno PCSK9
[2] = molecular target: cynomolgus monkey PCSK9, V5-6xHIS tagged (cynomolgus monkey); assay: SPR (Biacore 2000), antibody amine-coupled on CM5 chip, PCSK9 injected, pH 7.4
[3] = molecular target: cynomolgus monkey PCSK9, V5-6xHIS tagged (cynomolgus monkey); assay: Biacore solution equilibrium assay: PCSK9 mixed with 21B12.1, free PCSK9 read on immobilised 21B12

| Kd [1] [pM] | Kd [2] [pM] | Kd [3] [pM] | Binder |
| --- | --- | --- | --- |
| 16 | 870 |  | 16F12, anti-PCSK9 huIgG4 (antibody, V domains shown) VH: QVHLVESGGGVVQPGRSLRLSCAASGFTFNSFGMHWVRQAPGKGLEWVALIWSDGSDEYYADSVKGRFTISRDNSKNTLYLQMNSLRAEDTAVYYCARAIAALYYYYGMDVWGQGTTVTVSS VL: QSVLTQPPSVSAAPGQKVTISCSGSSSNIGNNFVSWYQQLPGTAPKLLIYDYNKRPSGIPDRFSGSKSGTSATLGITGLQTGDEADYYCGTWDSSLSAYVFGTGTRVTVLQ |
|  | 360 | 11 | 21B12, anti-PCSK9 huIgG4 (antibody, V domains shown) VH: QVQLVQSGAEVKKPGASVKVSCKASGYTLTSYGISWVRQAPGQGLEWMGWVSFYNGNTNYAQKLQGRGTMTTDPSTSTAYMELRSLRSDDTAVYYCARGYGMDVWGQGTTVTVSS VL: QSALTQPASVSGSPGQSITISCTGTSSDVGGYNSVSWYQQHPGKAPKLMIYEVSNRPSGVSNRFSGSKSGNTASLTISGLQAEDEADYYCNSYTSTSMVFGGGTKLTVLQ |
